US20210380703A1 (RIGEL PHARMACEUTICALS, published 2021)
Where a chain is given by its changes, count along the chain named.

B1: 369_G09 (antibody, V domains shown)
VH: EVQLLESGGGLVQPGGSLRLSCAASGFTFDSYSMNWVRQAPGKGLEWVSNINYNGGYTGYADSVKGRFTISRDNSKNTLYLQMNSLRAEDTAVYYCARSATWHDTHLDYWGQGTLVTVSS
VL: DIQMTQSPSSLSASVGDRVTITCRASQSIVTYLNWYQQKPGKAPKLLIYAATSRASGVPSRFSGSGSGTDFTLTISSLQPEDFATYYCQQSYDLPLTFGGGTKVEIK
notes: VH and VL only
B2: 369_H11 (antibody, V domains shown)
VH: B1 VH with D30S, S31D, S33G, N50S
VL: B1 VL with V30L, T31S, A55H
notes: VH and VL only
B3: 370_A08 (antibody, V domains shown)
VH: B1 VH with N50S, G55S
VL: B1 VL with L47V
notes: VH and VL only
B4: 370_A10 (antibody, V domains shown)
VH: B1 VH with D30S, S31D, N50S, G55S, T58K
VL: B1 VL with V30L, T31S, L33V, R54L, L94T
notes: VH and VL only
B5: 370_D07 (antibody, V domains shown)
VH: B1 VH with D30S, S33G, G55S
VL: B1 VL with V30L, T31S, L33V, L47V, R54L, D93E, L94S
notes: VH and VL only
B6: 371_B05 (antibody, V domains shown)
VH: B1 VH with D30S, N50G, G55S, G59S
VL: B1 VL with V30L, L47V, R54L, Y92D, D93E, L94T
notes: VH and VL only
B7: 371_B10 (antibody, V domains shown)
VH: B1 VH
VL: B1 VL with T31S, L33V
notes: VH and VL only
B8: 371_F12 (antibody, V domains shown)
VH: B1 VH with T58K, G59S
VL: B1 VL with V30I, T31S, Y92N, D93N
notes: VH and VL only
B9: 372_H03 (antibody, V domains shown)
VH: B1 VH with S33G, T58K, G59S
VL: B1 VL with V30I, L33V, R54L, D93N
notes: VH and VL only
B10: 373_A07 (antibody, V domains shown)
VH: B1 VH with D30S
VL: B1 VL with V30L, L33V, Y92D, D93N
notes: VH and VL only
B11: 373_D02 (antibody, V domains shown)
VH: B1 VH with D30S, G55S, T58K
VL: B1 VL with V30L, T31S, R54L
notes: VH and VL only
B12: 373_D09 (antibody, V domains shown)
VH: B1 VH with N50G, G55S, G59S
VL: B1 VL with V30L, L47V, A55H, D93E, L94N
notes: VH and VL only
B13: 373_E08 (antibody, V domains shown)
VH: B1 VH with S33G, N50G, G55S, G59S
VL: B1 VL with T31S, L33V, A51V, D93E, L94S
notes: VH and VL only
B14: 373_F02 (antibody, V domains shown)
VH: B1 VH with N50G, G55S, T58K, G59S
VL: B1 VL with V30L, L94T
notes: VH and VL only

Each binder was assayed against T1, human ACVR2A (human, UniProt P27037 20-135, limits assumed) (assay: ELISA).
T1 construct: also called activin receptor, type II A
Method in brief: (§1)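 Monoclonal antibodies were first applied to human or mouse ACVR2A, alongside biotinylated goat anti-human kappa light chain (positive control) and human Fc (negative control); binding was then determined by ELISA.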
Further: test concentration or dose not given here.

T1 sequence (P27037 20-135 limits assumed): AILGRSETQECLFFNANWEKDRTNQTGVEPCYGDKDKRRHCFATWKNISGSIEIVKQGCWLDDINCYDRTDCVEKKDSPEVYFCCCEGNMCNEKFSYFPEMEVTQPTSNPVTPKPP

Binder	optical density [OD]
B1	3.36
B2	1.45
B3	2.41
B4	2.58
B5	2.81
B6	1.05
B7	3.31
B8	2.47
B9	2.32
B10	3.52
B11	3.73
B12	3.46
B13	2.97
B14	3.62

These binders were tested against mouse ACVR2A (mouse, UniProt P27038 20-135, limits assumed) (assay: ELISA).
Method in brief: as §1

mouse ACVR2A, sequence (P27038 20-135 limits assumed): as the sequence (P27037 20-135 limits assumed) above, with K20R, V73I counted along it

Binder	optical density [OD]
B1	3.27
B2	1.64
B3	2.33
B4	2.88
B5	3.14
B6	1.24
B7	3.36
B8	2.3
B9	2.7
B10	3.59
B11	3.65
B12	3.5
B13	3.23
B14	3.6

Each binder was assayed against T2, biotinylated goat anti-human kappa light chain (assay: ELISA, positive control).
T2 construct: Positive control of the ELISA
Method in brief: as §1

Binder	optical density [OD]
B1	3.6
B2	2.21
B3	3.52
B4	3.47
B5	3.38
B6	1.65
B7	3.44
B8	3.62
B9	3.64
B10	3.11
B11	3.19
B12	3.04
B13	3.2
B14	3.15
